Measured values published in patent publication US20230407373A1 (priority 2020, published 2023).
Like-named read-outs stand apart in the source and are kept apart here.

B1: G3BP2: host protein of the core SARS-CoV-2 RNA interactome (protein, UniProt Q9UN86 2-482, looked up)
Ras GTPase-activating …: VMEKPSPLLVGREFVRQYYTLLNKAPEYLHRFYGRNSSYVHGGVDASGKPQEAVYGQNDIHHKVLSLNFSECHTKIRHVDAHATLSDGVVVQVMGLLSNSGQPERKFMQTFVLAPEGSVPNKFYVHNDMFRYEDEVFGDSEPELDEESEDEVEEEQEERQPSPEPVQENANSGYYEAHPVTNGIEEPLEESSHEPEPEPESETKTEELKPQVEEKNLEELEEKSTTPPPAEPVSLPQEPPKAFSWASVTSKNLPPSGTVSSSGIPPHVKAPVSQPRVEAKPEVQSQPPRVREQRPRERPGFPPRGPRPGRGDMEQNDSDNRRIIRYPDSHQLFVGNLPHDIDENELKEFFMSFGNVVELRINTKGVGGKLPNFGFVVFDDSEPVQRILIAKPIMFRGEVRLNVEEKKTRAARERETRGGGDDRRDIRRNDRGPGGPRGIVGGGMMRDRDGRGPPPRGGMAQKLGSGRGTGQMEGRFTGQRR
B2: RBMS1 (protein, UniProt P29558 1-406, looked up)
RNA-binding motif, …: MGKVWKQQMYPQYATYYYPQYLQAKQSLVPAHPMAPPSPSTTSSNNNSSSSSNSGWDQLSKTNLYIRGLPPHTTDQDLVKLCQPYGKIVSTKAILDKTTNKCKGYGFVDFDSPAAAQKAVSALKASGVQAQMAKQQEQDPTNLYISNLPLSMDEQELENMLKPFGQVISTRILRDSSGTSRGVGFARMESTEKCEAVIGHFNGKFIKTPPGVSAPTEPLLCKFADGGQKKRQNPNKYIPNGRPWHREGEVRLAGMTLTYDPTTAAIQNGFYPSPYSIATNRMITQTSITPYIASPVSAYQVQSPSWMQPQPYILQHPGAVLTPSMEHTMSLQPASMISPLAQQMSHLSLGSTGTYMPATSAMQGAYLPQYAHMQTTAVPVEEASGQQQVAVETSNDHSPYTFQPNK
B3: DDX3Y (protein, UniProt O15523 2-660, looked up)
ATP-dependent RNA helicase …: SHVVVKNDPELDQQLANLDLNSEKQSGGASTASKGRYIPPHLRNREASKGFHDKDSSGWSCSKDKDAYSSFGSRDSRGKPGYFSERGSGSRGRFDDRGRSDYDGIGNRERPGFGRFERSGHSRWCDKSVEDDWSKPLPPSERLEQELFSGGNTGINFEKYDDIPVEATGSNCPPHIENFSDIDMGEIIMGNIELTRYTRPTPVQKHAIPIIKGKRDLMACAQTGSGKTAAFLLPILSQIYTDGPGEALKAVKENGRYGRRKQYPISLVLAPTRELAVQIYEEARKFSYRSRVRPCVVYGGADIGQQIRDLERGCHLLVATPGRLVDMMERGKIGLDFCKYLVLDEADRMLDMGFEPQIRRIVEQDTMPPKGVRHTMMFSATFPKEIQMLARDFLDEYIFLAVGRVGSTSENITQKVVWVEDLDKRSFLLDILGATGSDSLTLVFVETKKGADSLEDFLYHEGYACTSIHGDRSQRDREEALHQFRSGKSPILVATAVAARGLDISNVRHVINFDLPSDIEEYVHRIGRTGRVGNLGLATSFFNEKNMNITKDLLDLLVEAKQEVPSWLENMAYEHHYKGGSRGRSKSNRFSGGFGARDYRQSSGSSSSGFGASRGSSSRSGGGGYGNSRGFGGGGYGGFYNSDGYGGNYNSQGVDWWGN
B4: HNRNPUL1: host protein, UniProt Q9BU32 (protein, UniProt Q9BUJ2 1-856, looked up)
Heterogeneous nuclear …: MDVRRLKVNELREELQRRGLDTRGLKAELAERLQAALEAEEPDDERELDADDEPGRPGHINEEVETEGGSELEGTAQPPPPGLQPHAEPGGYSGPDGHYAMDNITRQNQFYDTQVIKQENESGYERRPLEMEQQQAYRPEMKTEMKQGAPTSFLPPEASQLKPDRQQFQSRKRPYEENRGRGYFEHREDRRGRSPQPPAEEDEDDFDDTLVAIDTYNCDLHFKVARDRSSGYPLTIEGFAYLWSGARASYGVRRGRVCFEMKINEEISVKHLPSTEPDPHVVRIGWSLDSCSTQLGEEPFSYGYGGTGKKSTNSRFENYGDKFAENDVIGCFADFECGNDVELSFTKNGKWMGIAFRIQKEALGGQALYPHVLVKNCAVEFNFGQRAEPYCSVLPGFTFIQHLPLSERIRGTVGPKSKAECEILMMVGLPAAGKTTWAIKHAASNPSKKYNILGTNAIMDKMRVMGLRRQRNYAGRWDVLIQQATQCLNRLIQIAARKKRNYILDQTNVYGSAQRRKMRPFEGFQRKAIVICPTDEDLKDRTIKRTDEEGKDVPDHAVLEMKANFTLPDVGDFLDEVLFIELQREEADKLVRQYNEEGRKAGPPPEKRFDNRGGGGFRGRGGGGGFQRYENRGPPGGNRGGFQNRGGGSGGGGNYRGGFNRSGGGGYSQNRWGNNNRDNNNSNNRGSYNRAPQQQPPPQQPPPPQPPPQQPPPPPSYSPARNPPGASTYNKNSNIPGSSANTSTPTVSSYSPPQPSYSQPPYNQGGYSQGYTAPPPPPPPPPAYNYGSYGGYNPAPYTPPPPPTAQTYPQPSYNQYQQYAQQWNQYYQNQGQWPPYYGNYDYGSYSGNTQGGTSTQ
B5: HNRNPD (protein, UniProt Q14103 2-355, looked up)
Heterogeneous nuclear …: SEEQFGGDGAAAAATAAVGGSAGEQEGAMVAATQGAAAAAGSGAGTGGGTASGGTEGGSAESEGAKIDASKNEEDEGHSNSSPRHSEAATAQREEWKMFIGGLSWDTTKKDLKDYFSKFGEVVDCTLKLDPITGRSRGFGFVLFKESESVDKVMDQKEHKLNGKVIDPKRAKAMKTKEPVKKIFVGGLSPDTPEEKIREYFGGFGEVESIELPMDNKTNKRRGFCFITFKEEEPVKKIMEKKYHNVGLSKCEIKVAMSKEQYQQQQQWGSRGGFAGRARGRGGGPSQNWNQGYSNYWNQGYGNYGYNSQGYGGYGGYDYTGYNNYYGYGDYSNQQSGYGKVSRRGGHQNSYKPY
B6: HNRNPR (protein, UniProt O43390 2-633, looked up)
Heterogeneous nuclear …: ANQVNGNAVQLKEEEEPMDTSSVTHTEHYKTLIEAGLPQKVAERLDEIFQTGLVAYVDLDERAIDALREFNEEGALSVLQQFKESDLSHVQNKSAFLCGVMKTYRQREKQGSKVQESTKGPDEAKIKALLERTGYTLDVTTGQRKYGGPPPDSVYSGVQPGIGTEVFVGKIPRDLYEDELVPLFEKAGPIWDLRLMMDPLSGQNRGYAFITFCGKEAAQEAVKLCDSYEIRPGKHLGVCISVANNRLFVGSIPKNKTKENILEEFSKVTEGLVDVILYHQPDDKKKNRGFCFLEYEDHKSAAQARRRLMSGKVKVWGNVVTVEWADPVEEPDPEVMAKVKVLFVRNLATTVTEEILEKSFSEFGKLERVKKLKDYAFVHFEDRGAAVKAMDEMNGKEIEGEEIEIVLAKPPDKKRKERQAARQASRSTAYEDYYYHPPPRMPPPIRGRGRGGGRGGYGYPPDYYGYEDYYDDYYGYDYHDYRGGYEDPYYGYDDGYAVRGRGGGRGGRGAPPPPRGRGAPPPRGRAGYSQRGAPLGPPRGSRGGRGGPAQQQRGRGSRGSRGNRGGNVGGKRKADGYNQPDSKRRQTNNQQNWGSQPIAQQPLQQGGDYSGNYGYNNDNQEFYQDTYGQQWK

Assays:
Assay type in all cases: binding
[1] = tested on: SARS-CoV-2 gRNA; conditions: for target (unweighted spectral count of the protein in the RNP capture): LC-MS/MS, Probe I sample (first 199 lines of Table 2)
[2] = tested on: SARS-CoV-2 gRNA and sgRNAs; conditions: for background (unweighted spectral count in control): no-probe control pull-down, used as background for Probe II; for target (unweighted spectral count in RNP capture): Probe II capture, LC-MS/MS LFQ
[3] = tested on: gRNA of HCoV-OC43; conditions: for target (spectral count, OC43 Probe I RNP capture) / background (spectral count, no-probe control): type n_48_v: 48 hours post-infection; for target (spectral count, OC43 Probe I RNP capture): infected cells, unweighted spectral count; for background (spectral count, no-probe control): no-probe control on infected cells
[4] = tested on: HCoV-OC43 gRNA and sgRNA; conditions: for target (unweighted spectral count): OC43 Probe II, infected cells; for target (unweighted spectral count, OC43 Probe II) / background (unweighted spectral count, no-probe control): type n_48_v, 48 hpi; for target (unweighted spectral count, OC43 Probe II): OC43 Probe II capture on infected cells; for background (unweighted spectral count, no-probe control): no-probe control on infected cells
[5] = 12 hpi (type n_12_v), tested against no-probe control
[6] = 24 hpi (type n_24_v), tested against no-probe control

Molecule | enrichment in SARS-CoV-2 Probe I RNP capture [1] | target (unweighted spectral count of the protein in the RNP capture) ([1]; […]) | enrichment in SARS-CoV-2 Probe II RNP capture [2] | background (unweighted spectral count in control) [2] | target (unweighted spectral count in RNP capture) [2] | target (unweighted spectral count in RNP capture) ([1]; Probe I capture, […], LC-MS/MS LFQ) | background (unweighted spectral count in control) ([1]; no-probe control pull-down, used as background for Probe I) | target (spectral count) ([3]; type g_36_m, HCoV-OC43-infected HCT-8 cells, 36 hpi, Probe I) | background (spectral count) ([3]; type g_36_m, uninfected-probe control, 36 hpi, Probe I) | target (spectral count, OC43 Probe I RNP capture) [3] | background (spectral count, no-probe control) [3] | target (unweighted spectral count) [4, 5] | target (unweighted spectral count) [4, 6] | target (unweighted spectral count, OC43 Probe II) [4] | background (unweighted spectral count, no-probe control) [4] | target (unweighted spectral count, OC43 Probe II capture) ([4]; 36 hpi, type n_36_v, tested against no-probe control, FDR<10%)
B1 | enriched | 25 | enriched | 1 | – | – | – | – | – | – | – | – | – | – | – | –
B2 | – | 11 | – | 1 | 15 | – | – | – | – | – | – | – | – | – | – | –
B3 | – | 8 | – | 1 | 27 | – | – | – | – | – | – | – | – | – | – | –
B4 | – | – | – | – | – | 5 | 1 | 13 | 2 | 11 | 1 | 4 | 8 | 11 | 1 | –
B5 | – | 37 | – | – | – | – | – | – | – | 26 | 2 | – | 17 | 36 | 2 | –
B6 | – | 32 | – | – | – | – | – | – | – | 63 | 4 | 13 | 24 | 76 | 4 | 52
